These results are taken from PMC8508679.

By stoichiometry N is commonly meant the number of molecules, sites or subunits per partner or assembly.

This test addresses Trop2 ectodomain (N120Q, N208Q) (human) (UniProt P09758). Description: crystal structure; X-ray, 2.81 Å; sitting drop vapor diffusion, 1.6 M ammonium sulfate, 0.5 M NaCl, 13.3 mM EDTA, 0.1 M MES pH 5.8, protein at 10 mg/mL; crystal contacts analysed with PISA.

As to “Trop2 ectodomain (N120Q, N208Q) (from UniProt P09758 27-274) (domain or fragment)”, the stoichiometry N worked out at 2.
